In patent publication US20220332804A1 (CSL INNOVATION, published 2022):

Assays:
Assay in all cases: SPR, KD relative to WT C2;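 note: biacore SPR at 37 °C, anti-C2 mAbs captured on anti-human IgG chips with alanine or serine point mutants of C2 as analyte, KD from 1:1 fit compared with wild-type C2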
[1] = target: T1, human C2 G466A (human, UniProt P06681 21-752)
T1 sequence: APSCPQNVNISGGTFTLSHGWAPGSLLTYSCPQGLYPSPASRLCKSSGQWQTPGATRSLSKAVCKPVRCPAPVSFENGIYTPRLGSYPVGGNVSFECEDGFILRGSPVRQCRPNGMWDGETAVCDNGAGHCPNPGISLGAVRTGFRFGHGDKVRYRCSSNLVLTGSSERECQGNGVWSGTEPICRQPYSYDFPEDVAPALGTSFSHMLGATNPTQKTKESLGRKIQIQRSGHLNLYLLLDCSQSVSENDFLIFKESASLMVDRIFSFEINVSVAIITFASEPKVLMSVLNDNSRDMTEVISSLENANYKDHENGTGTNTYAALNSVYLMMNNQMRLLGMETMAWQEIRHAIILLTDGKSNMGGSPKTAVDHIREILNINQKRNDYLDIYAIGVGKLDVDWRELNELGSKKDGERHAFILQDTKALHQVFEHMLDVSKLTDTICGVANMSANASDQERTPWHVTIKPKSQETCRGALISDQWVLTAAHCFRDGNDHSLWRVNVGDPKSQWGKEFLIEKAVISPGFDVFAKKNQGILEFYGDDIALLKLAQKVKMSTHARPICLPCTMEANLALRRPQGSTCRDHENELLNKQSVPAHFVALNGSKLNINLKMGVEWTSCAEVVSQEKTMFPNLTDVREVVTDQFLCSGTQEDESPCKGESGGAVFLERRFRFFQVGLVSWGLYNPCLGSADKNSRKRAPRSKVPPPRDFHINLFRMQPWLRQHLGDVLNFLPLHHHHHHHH

[2] = target: T2, human C2 N471A (human, UniProt P06681 21-752)
T2 sequence: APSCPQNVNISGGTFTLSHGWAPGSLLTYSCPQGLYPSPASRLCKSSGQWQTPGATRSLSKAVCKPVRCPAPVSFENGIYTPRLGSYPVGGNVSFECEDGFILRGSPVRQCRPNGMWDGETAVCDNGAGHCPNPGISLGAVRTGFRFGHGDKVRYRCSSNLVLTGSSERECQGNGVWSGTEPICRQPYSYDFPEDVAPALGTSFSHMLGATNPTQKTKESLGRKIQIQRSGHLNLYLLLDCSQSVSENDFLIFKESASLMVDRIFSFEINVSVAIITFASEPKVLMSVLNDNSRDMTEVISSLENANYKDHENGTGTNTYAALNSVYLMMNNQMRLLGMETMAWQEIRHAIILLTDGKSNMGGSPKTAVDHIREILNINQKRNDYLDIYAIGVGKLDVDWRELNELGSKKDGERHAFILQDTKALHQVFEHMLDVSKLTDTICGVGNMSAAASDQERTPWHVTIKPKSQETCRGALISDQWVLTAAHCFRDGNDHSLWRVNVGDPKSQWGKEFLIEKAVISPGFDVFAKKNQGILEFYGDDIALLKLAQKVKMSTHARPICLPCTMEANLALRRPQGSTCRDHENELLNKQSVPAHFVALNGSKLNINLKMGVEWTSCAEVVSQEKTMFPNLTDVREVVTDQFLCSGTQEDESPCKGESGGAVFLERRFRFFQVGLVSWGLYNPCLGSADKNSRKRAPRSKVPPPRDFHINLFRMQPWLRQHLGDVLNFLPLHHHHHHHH

[3] = target: T3, human C2 S456A (human, UniProt P06681 21-752)
T3 sequence: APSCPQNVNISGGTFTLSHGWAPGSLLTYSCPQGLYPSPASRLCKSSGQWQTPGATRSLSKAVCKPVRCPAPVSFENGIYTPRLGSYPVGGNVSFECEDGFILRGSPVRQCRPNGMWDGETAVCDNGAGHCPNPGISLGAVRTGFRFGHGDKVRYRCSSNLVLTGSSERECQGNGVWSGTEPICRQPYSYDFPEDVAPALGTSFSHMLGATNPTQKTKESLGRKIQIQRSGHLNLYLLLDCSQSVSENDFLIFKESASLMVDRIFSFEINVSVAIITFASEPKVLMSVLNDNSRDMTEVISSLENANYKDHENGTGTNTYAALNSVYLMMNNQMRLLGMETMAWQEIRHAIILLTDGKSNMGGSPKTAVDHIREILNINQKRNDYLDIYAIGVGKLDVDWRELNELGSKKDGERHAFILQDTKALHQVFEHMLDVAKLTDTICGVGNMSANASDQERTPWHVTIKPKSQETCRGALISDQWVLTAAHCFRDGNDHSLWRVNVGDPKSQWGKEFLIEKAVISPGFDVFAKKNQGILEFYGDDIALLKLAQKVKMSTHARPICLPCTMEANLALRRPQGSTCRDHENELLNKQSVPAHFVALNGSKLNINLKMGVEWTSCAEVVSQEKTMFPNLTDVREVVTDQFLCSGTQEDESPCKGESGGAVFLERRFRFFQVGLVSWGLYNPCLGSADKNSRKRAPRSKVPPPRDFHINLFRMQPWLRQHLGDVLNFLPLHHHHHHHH

[4] = target: T4, human C2 A472S (human, UniProt P06681 21-752)
T4 sequence: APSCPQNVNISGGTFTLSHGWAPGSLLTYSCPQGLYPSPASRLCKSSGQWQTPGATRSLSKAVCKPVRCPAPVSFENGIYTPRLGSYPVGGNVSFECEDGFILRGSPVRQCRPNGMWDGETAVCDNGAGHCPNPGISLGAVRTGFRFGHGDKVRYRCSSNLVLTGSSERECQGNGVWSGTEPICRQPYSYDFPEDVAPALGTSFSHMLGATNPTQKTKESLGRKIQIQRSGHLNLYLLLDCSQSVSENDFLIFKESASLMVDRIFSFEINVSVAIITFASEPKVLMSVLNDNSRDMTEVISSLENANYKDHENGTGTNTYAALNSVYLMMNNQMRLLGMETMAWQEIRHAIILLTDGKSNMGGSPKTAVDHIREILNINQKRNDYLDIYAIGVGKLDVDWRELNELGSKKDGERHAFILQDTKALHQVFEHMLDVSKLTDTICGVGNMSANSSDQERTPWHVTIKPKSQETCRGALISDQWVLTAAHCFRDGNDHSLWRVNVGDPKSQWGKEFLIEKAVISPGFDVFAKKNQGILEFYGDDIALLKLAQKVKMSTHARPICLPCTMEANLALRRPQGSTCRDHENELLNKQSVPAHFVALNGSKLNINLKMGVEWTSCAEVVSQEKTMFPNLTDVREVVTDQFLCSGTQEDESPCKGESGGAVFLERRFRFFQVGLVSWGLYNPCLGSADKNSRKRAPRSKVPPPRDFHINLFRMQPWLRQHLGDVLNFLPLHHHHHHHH

B1: RF16-242 (antibody, human IgG4 S228P, lambda, V domains shown)
VH: EVQLLQSGAEVKKPGESLKISCKGSGYSFTSYWIGWVRQMPGKGLEWMGIIYPGDSDTRYSPSFQGQVTISADKSISTAYLQWSSLKASDTAMYYCARRGHYGDYFDYWGQGTLVTVSS
VL: SYELTQPPSVSVSPGQTARITCSGDALPKKYAYWYHQKSGQAPVLVIYEDRRRPSEIPERFSGSSSGTMATLTITGAQVEDEGVYFCYSRDRAGNQRVFGGGTQLTVLG
notes: pH-dependent anti-C2 antibody from a phage display library
Fold diff [1]: 4 fold
Fold diff [2]: 1 fold
Fold diff [3]: 9 fold
Fold diff [4]: 7 fold
